Assay results from publication PMC9029707, “Crystal Structure of an SSB Protein from Salmonella enterica and Its Inhibition by Flavanonol Taxifolin” (International Journal of Molecular Sciences, 2022).

What was measured:
[1] = target: T1, SeSSB (single-stranded DNA-binding protein, STM_4256) (Salmonella enterica, UniProt P0A2F6); assay: EMSA, inhibition of binding of purified SeSSB ([…]) to biotinylated ssDNA dT35
T1 construct: gene ssb; His-tagged SeSSB, 176 residues (pET21b-SeSSB)

[2] = target: T2, SeSSB (single-stranded DNA-binding protein) (Salmonella enterica serovar Typhimurium …, UniProt P0A2F6 1-176); assay: EMSA; 37 C, 40 mM Tris-HCl pH 7.5, 50 mM NaCl; protein at 50% bound; dA EMSA: 20 mM Tris-HCl pH 8.0, 100 mM NaCl, 25 C, 30 min, 1.7 nM DNA; dT35 EMSA: 40 mM Tris-HCl pH 7.5, 50 mM NaCl, 37 C, 60 min, 30 fmol/uL DNA; 8% native PAGE in TBE; details: protein: recombinant; tags: His-tag (pET21b); chain copies: 4; label: biotin (5' per Methods 4.5; 3' per Results 2.5); single strand
[3] = target: T2, SeSSB (single-stranded DNA-binding …); assay: EMSA; single complex; SeSSB 0-4000 nM; dA EMSA: 20 mM Tris-HCl pH 8.0, 100 mM NaCl, 25 C, 30 min, 1.7 nM DNA; dT35 EMSA: 40 mM Tris-HCl pH 7.5, 50 mM NaCl, 37 C, 60 min, 30 fmol/uL DNA; 8% native PAGE in TBE; details: protein: recombinant; tags: His-tag (pET21b); chain copies: 4; label: 5'-32P (T4 PNK); single strand
[4] = target: T2, SeSSB (single-stranded DNA-binding …); assay: EMSA; two complexes; SeSSB 0-4000 nM; dA EMSA: 20 mM Tris-HCl pH 8.0, 100 mM NaCl, 25 C, 30 min, 1.7 nM DNA; dT35 EMSA: 40 mM Tris-HCl pH 7.5, 50 mM NaCl, 37 C, 60 min, 30 fmol/uL DNA; 8% native PAGE in TBE; details: protein: recombinant; tags: His-tag (pET21b); chain copies: 4; label: 5'-32P (T4 PNK); single strand
[5] = target: the molecule itself; assay: SEC; purified SeSSB (5 mg/mL) on a Superdex 200 prep-grade column in 100 mM NaCl, 100 mM MES, pH 6.5; calibrated with standard proteins; native mass estimated 76641 Da; tetramer
[6] = target: T2, SeSSB (single-stranded DNA-binding …); assay: EMSA; two complexes at higher SeSSB (0-4000 nM); dA EMSA: 20 mM Tris-HCl pH 8.0, 100 mM NaCl, 25 C, 30 min, 1.7 nM DNA; dT35 EMSA: 40 mM Tris-HCl pH 7.5, 50 mM NaCl, 37 C, 60 min, 30 fmol/uL DNA; 8% native PAGE in TBE; details: protein: recombinant; tags: His-tag (pET21b); chain copies: 4; label: 5'-32P (T4 PNK); single strand

## O=C1c2c(O)cc(O)cc2O[C@H](c2ccc(O)c(O)c2)[C@H]1O [taxifolin]
[1]
  IC50: 98 ± 12 µM

## TTTTTTTTTTTTTTTTTTTTTTTTTTTTTTTTTTT (ssDNA) [dT35]
[2]
  Kd: 0.23 ± 0.02 µM

## AAAAAAAAAAAAAAAAAAAAAAAAAAAAAAAAAAA (ssDNA) [dA35]
[3]
  binding result: binds

## AAAAAAAAAAAAAAAAAAAAAAAAAAAAAAAAAAAAAAAAAAAAAAAAAA (ssDNA) [dA50]
[4]
  binding result: binds

B1: Single-stranded DNA-binding protein (SSB) from Salmonella enterica serovar Typhimurium LT2 (natural protein, UniProt P0A2F6 1-176, looked up)
chain: MASRGVNKVILVGNLGQDPEVRYMPSGGAVANLTLATSESWRDKQTGEMKEQTEWHRVVMFGKLAEVAGEYLRKGSQVYIEGQLRTRKWTDQSGQERYTTEINVPQIGGVMQMLGGRQGGGAPAGGQQQGGWGQPQQPQQPQGGNQFSGGAQSRPQQSAPAPSNEPPMDFDDDIPF
notes: SSB (STM_4256) of Salmonella enterica serovar Typhimurium LT2; monomer of 176 amino acid residues, ~19 kDa; residues 1-115 ordered and 116-176 disordered in the crystal; No removal of the tag is described; also called SeSSB; S. enterica SSB
[5]
  stoichiometry N: 4

## AAAAAAAAAAAAAAAAAAAAAAAAAAAAAAAAAAAAAAAA (ssDNA) [dA40]
[3]
  binding result: binds

## AAAAAAAAAAAAAAAAAAAAAAAAAAAAAAAAAAAAAAAAAAAAA (ssDNA) [dA45]
[6]
  binding result: binds

B2: dA55 (ssDNA)
DNA: AAAAAAAAAAAAAAAAAAAAAAAAAAAAAAAAAAAAAAAAAAAAAAAAAAAAAAA
[4]
  binding result: binds
